This is an account of results in US20180009879A1.

Bounds are passed on as bounds.

The target of experiment [1] is HSV-1 (HF strain, VR-260 ATCC): unidentified viral antigen on virions or infected VERO-E6 cells (Herpes simplex virus 1). As to the kind of experiment: cell-based or functional assay.
In experiment [2] the target is HSV-2 (MS strain, VR-540 ATCC): unidentified viral antigen on virions or infected VERO-E6 cells (Herpes simplex virus 2). In words: cell-based or functional assay.

B1: Fab Ex2 (IgG1 Fab format) (Fab, V domains shown)
VH: LESGGGVVQPGRSLRLSCAASGFTFTTFAMHWVRQAPGKGLEWLAFISYDGSNKYYADSVKGRFTISRDNSKNTLYLQMNSLRAEDTSIYYCAREVWNYADYWGQGALVTVSS
VL: ELTQSPGTLSSSPGHRATLSCKASAPLGSNHMAWYQQKPGQAPRLLIYGASTRATGVPARFTGSGSGTDFTLTISSLQPEDFATYYCQQANSFPRTFGQGTKVEIK
With B1, the concentration reducing HSV cytopathic effect by 50% (IIF assay) in experiment [1] and in experiment [2] was under 5 µg/mL throughout.
